From patent publication US20210187118A1 (Daiichi Sankyo, published 2021) come the findings set out here.

The target in this assay is TA-MUC1 (tumor-associated MUC1) on human tumor cells (human, UniProt P15941 24-1255, aberrant tumor-associated O-glycosylation). In words: cell-based or functional assay.
Sequence of TA-MUC1 (tumor-associated MUC1) on human tumor cells (P15941 24-1255): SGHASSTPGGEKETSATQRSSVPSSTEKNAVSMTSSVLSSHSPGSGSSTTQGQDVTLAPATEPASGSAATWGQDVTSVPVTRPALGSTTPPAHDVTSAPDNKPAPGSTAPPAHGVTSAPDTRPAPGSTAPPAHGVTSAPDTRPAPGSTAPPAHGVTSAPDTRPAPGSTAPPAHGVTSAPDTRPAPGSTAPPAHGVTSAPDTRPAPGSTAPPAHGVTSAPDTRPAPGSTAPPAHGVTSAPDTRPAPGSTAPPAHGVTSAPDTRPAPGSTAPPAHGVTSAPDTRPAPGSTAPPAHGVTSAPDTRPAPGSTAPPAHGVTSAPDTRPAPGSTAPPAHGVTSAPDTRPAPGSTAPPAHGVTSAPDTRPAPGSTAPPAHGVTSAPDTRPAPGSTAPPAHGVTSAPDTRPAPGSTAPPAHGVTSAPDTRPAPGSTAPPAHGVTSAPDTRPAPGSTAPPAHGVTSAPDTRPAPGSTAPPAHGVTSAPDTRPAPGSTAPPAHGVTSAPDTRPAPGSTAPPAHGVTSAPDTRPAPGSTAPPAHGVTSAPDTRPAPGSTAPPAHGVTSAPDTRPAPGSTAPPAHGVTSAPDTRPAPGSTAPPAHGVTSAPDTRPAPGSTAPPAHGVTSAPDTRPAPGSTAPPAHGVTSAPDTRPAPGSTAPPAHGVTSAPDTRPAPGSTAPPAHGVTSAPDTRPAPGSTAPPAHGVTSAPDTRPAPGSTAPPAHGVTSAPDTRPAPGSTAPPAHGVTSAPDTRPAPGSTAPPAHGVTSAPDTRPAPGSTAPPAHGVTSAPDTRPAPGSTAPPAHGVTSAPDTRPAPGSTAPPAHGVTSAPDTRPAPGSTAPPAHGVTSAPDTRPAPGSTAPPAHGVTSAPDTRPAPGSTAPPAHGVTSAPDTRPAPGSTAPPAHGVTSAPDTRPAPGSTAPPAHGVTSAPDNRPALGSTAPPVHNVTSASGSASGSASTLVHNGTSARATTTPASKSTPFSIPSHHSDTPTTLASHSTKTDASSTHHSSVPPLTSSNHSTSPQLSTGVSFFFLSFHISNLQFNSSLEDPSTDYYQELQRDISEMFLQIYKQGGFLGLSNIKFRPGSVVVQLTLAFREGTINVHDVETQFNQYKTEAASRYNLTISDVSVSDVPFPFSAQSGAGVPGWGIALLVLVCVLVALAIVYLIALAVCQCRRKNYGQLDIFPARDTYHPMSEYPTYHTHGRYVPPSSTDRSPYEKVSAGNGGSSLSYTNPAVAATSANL

B1: PankoMab-ADC (antibody, human IgG1, kappa, V domains shown)
VH: EVQLVESGGGLVQPGGSMRLSCVASGFPFSNYWMNWVRQAPGKGLEWVGEIRLKSNNYTTHYAESVKGRFTISRDDSKNSLYLQMNSLKTEDTAVYYCTRHYYFDYWGQGTLVTVSS
VL: DIVMTQSPLSNPVTPGEPASISCRSSKSLLHSNGITYFFWYLQKPGQSPQLLIYQMSNLASGVPDRFSGSGSGTDFTLRISRVEAEDVGVYYCAQNLELPPTFGQGTKVEIKR
modifications: drug-linker of Formula 2 bound by thioether bonds; drug-linker of Formula 2 (maleimide-GGFG linker with DXd/exatecan derivative) bound by thioether bonds; average approximately 8 drug molecules per antibody; Fab N-glycan on Asn54 (position 57)
With B1, the “IC50 of cytotoxic activity (cell viability, ATP assay, 6 days) on TA-MUC1 positive MDA-MB-468 cells” value was less than 10 nM.

B2: PM-N54Q-ADC (antibody, human IgG1, kappa, V domains shown)
VH: EVQLVESGGGLVQPGGSMRLSCVASGFPFSNYWMNWVRQAPGKGLEWVGEIRLKSNQYTTHYAESVKGRFTISRDDSKNSLYLQMNSLKTEDTAVYYCTRHYYFDYWGQGTLVTVSS
VL: DIVMTQSPLSNPVTPGEPASISCRSSKSLLHSNGITYFFWYLQKPGQSPQLLIYQMSNLASGVPDRFSGSGSGTDFTLRISRVEAEDVGVYYCAQNLELPPTFGQGTKVEIKR
modifications: drug-linker of Formula 2 bound by thioether bonds; drug-linker of Formula 2 (maleimide-GGFG linker with DXd/exatecan derivative) bound by thioether bonds; average approximately 8 drug molecules per antibody
Consider B2, for which the “cytotoxic activity on HPAC and NCI-H441 cells, fold against PankoMab-ADC” value was greater than 1.5 fold; the “potency ratio of PM-N54Q-ADC to PankoMab-ADC, cytotoxic activity on HPAC cells” value came out at 1.92 ratio; the “potency ratio of PM-N54Q-ADC to PankoMab-ADC, cytotoxic activity on NCI-H441 cells” value worked out at 1.66 ratio.
